According to patent US20170051042A1:

Legend:
[1] = molecular target: purified GPIIb-IIIa (Innovative Research), immobilized (UniProt P08514); test: solid phase competition of 3.5 nM biotinylated fibrinogen on coated GPIIb-IIIa, N=4
[2] = molecular target: GPIIb/IIIa on mouse platelets (mouse) (UniProt Q9QUM0); test: mouse platelet depletion assay, unbound FVIII activity in supernatant; the filing calls this non-specific binding, not occurring through the peptide
[3] = molecular target: GPIIb/IIIa on human platelets (human) (UniProt P08514); test: platelet depletion assay, 2.5 nM, plasma lacking FVIII and vWF (condition C); the filing calls this non-specific binding to platelets, not through GPIIb/IIIa

Sequence of GPIIb/IIIa on mouse platelets (mouse) (Q9QUM0 32-1033, chain 1 of 2): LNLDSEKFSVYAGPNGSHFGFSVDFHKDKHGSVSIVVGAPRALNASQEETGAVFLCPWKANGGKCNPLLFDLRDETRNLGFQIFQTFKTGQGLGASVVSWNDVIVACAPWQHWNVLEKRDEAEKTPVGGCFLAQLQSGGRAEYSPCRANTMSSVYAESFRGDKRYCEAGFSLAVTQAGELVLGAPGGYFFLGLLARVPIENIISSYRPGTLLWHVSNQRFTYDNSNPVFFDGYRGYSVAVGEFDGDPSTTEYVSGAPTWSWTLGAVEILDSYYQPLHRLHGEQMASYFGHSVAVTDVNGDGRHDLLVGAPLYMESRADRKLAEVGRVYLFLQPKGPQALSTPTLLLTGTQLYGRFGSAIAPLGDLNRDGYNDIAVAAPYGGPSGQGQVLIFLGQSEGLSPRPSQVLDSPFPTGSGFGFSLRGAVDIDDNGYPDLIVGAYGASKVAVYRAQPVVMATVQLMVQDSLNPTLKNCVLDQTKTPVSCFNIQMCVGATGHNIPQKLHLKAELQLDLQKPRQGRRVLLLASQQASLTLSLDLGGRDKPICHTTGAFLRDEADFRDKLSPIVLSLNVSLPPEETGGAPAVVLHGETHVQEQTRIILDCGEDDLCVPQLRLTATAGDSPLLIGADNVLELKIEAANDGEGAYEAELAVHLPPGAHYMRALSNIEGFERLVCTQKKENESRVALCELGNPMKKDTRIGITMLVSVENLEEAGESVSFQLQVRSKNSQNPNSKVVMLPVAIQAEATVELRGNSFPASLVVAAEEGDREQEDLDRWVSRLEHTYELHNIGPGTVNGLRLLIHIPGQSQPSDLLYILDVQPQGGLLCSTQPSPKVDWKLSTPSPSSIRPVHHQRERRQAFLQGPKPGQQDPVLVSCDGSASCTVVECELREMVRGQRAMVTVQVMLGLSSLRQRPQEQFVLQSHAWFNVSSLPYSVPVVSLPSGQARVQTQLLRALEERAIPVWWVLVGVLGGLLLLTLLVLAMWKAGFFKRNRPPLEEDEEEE
Sequence of GPIIb/IIIa on mouse platelets (mouse) (O54890 26-787, chain 2 of 2, further chain): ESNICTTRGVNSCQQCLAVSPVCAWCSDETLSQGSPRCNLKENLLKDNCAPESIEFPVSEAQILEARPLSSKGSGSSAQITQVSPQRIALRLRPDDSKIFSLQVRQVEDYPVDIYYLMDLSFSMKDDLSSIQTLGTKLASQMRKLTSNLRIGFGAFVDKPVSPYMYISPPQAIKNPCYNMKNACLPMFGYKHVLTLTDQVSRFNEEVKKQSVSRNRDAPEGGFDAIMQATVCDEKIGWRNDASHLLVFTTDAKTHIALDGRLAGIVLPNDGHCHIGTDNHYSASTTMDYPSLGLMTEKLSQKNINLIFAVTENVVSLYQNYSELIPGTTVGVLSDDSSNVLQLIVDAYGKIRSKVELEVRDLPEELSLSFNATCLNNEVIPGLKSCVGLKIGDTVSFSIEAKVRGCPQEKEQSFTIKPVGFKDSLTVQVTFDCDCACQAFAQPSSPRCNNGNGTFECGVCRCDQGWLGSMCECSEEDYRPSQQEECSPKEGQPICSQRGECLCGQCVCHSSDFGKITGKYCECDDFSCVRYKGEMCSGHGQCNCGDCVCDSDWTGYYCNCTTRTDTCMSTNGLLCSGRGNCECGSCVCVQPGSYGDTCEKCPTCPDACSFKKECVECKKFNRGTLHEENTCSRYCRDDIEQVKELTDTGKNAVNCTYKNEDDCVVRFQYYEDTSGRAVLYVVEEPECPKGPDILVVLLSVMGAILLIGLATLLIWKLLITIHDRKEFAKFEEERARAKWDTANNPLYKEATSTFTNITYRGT

percent of activity bound [2] [%] | percent of FVIII activity bound [3] [%] | Substance | IC50 [1] [nM]
 |  | integrilin (peptide) | 1.3
59 | 35 | unmodified recombinant FVIII (from UniProt P00451 20-2351) | 
